In article PMC8390506:
pKd: −log10 of the molar value.

Biological target: double-mutant TPX2 (2M-TPX2) (Xenopus laevis) (UniProt Q6NUF4)
Assay: BLI; Octet (ForteBio); TPX2 attached to sensors, importin concentration varied; normalized amplitudes; apparent Kd

importin-αΔIBB (truncated importin-α without the importin-β-binding domain) (domain or fragment), sequence (P52170 71-522, stated change not applied): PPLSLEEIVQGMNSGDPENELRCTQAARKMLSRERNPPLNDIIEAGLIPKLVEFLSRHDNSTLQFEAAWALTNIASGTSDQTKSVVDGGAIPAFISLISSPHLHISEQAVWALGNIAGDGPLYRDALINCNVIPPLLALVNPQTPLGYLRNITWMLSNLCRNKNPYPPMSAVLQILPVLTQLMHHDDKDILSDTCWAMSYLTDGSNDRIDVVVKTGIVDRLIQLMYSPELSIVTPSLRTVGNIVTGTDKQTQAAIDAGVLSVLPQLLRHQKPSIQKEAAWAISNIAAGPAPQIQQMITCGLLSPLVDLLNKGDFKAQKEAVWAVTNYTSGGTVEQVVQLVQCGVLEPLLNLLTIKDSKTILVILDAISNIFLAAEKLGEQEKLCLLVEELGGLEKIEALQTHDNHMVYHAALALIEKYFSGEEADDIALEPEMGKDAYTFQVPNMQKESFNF

importin-αΔIBB (truncated importin-α without the importin-β-binding domain) (domain or fragment)
pKd: 7.35
